According to patent publication US20190071490A1 (BETH ISRAEL DEACONESS MEDICAL CENTER, published 2019):
Numbering of substitutions follows the chain as printed.

B1: G1 variant M16 Fab (Fab, V domains shown)
VH: EVQLVESGGGLVQPGGSLRLSCAASGFTFSNYWISWVRQAPGKGLEWVAEIRSESDASATHYAEAVKGRFTISRDNAKNSLYLQMNSLRAEDTAVYYCTSYFDYGLAIQNYWGQGTLVTVSS
VL: EIVLTQSPATLSLSPGERATLSCKASKRVTTYVSWYQQKPGQAPRLLIYGASNRYLGIPARFSGSGSGTDFTLTISSLEPEDFAVYYCSQSYNYPYTFGQGTKLEIK
notes: Fab; constant domains as m1
B2: G1 variant M36 Fab (Fab, V domains shown)
VH: B1 VH with S100V
VL: B1 VL with R28N, T30R
notes: Fab; constant domains as m1
B3: G1 variant M31 Fab (Fab, V domains shown)
VH: B1 VH with E54K, A57G, S100V
VL: B1 VL with R28N, T30G
notes: Fab; constant domains as m1
B4: G1 variant M24 Fab (Fab, V domains shown)
VH: B1 VH with S100V
VL: B1 VL with R28L
notes: Fab; constant domains as m1
B5: G1 variant M41 Fab (Fab, V domains shown)
VH: B1 VH with E54K, A57N, E64D, S100V
VL: B1 VL with R28N, G50A, L56T
notes: Fab; constant domains as m1
B6: G1 variant M17 Fab (Fab, V domains shown)
VH: B1 VH with S100V
VL: B1 VL
notes: Fab; constant domains as m1
B7: G1 variant M42 Fab (Fab, V domains shown)
VH: B1 VH with E54K, A57N, H61F, S100V
VL: B1 VL with R28N, G50A, L56T
notes: Fab; constant domains as m1
B8: G1 variant M28 Fab (Fab, V domains shown)
VH: B1 VH with E54R, A57N, S100V
VL: B1 VL with R28N, T30D
notes: Fab; constant domains as m1
B9: G1 variant M40 Fab (Fab, V domains shown)
VH: B1 VH with E54K, A57L, S100V
VL: B1 VL with R28N, G50A, L56T
notes: Fab; constant domains as m1
B10: G1 variant M22 Fab (Fab, V domains shown)
VH: B1 VH with S100A
VL: B1 VL with R28W
notes: Fab; constant domains as m1
B11: G1 variant M33 Fab (Fab, V domains shown)
VH: B1 VH with E54K, A57N, S58G, S100V
VL: B1 VL with R28N, T30G
notes: Fab; constant domains as m1
B12: G1 variant M25 Fab (Fab, V domains shown)
VH: B1 VH with S100V
VL: B1 VL with R28N
notes: Fab; constant domains as m1
B13: G1 variant M34 Fab (Fab, V domains shown)
VH: B1 VH with E54K, A57N, S58T, S100V
VL: B1 VL with R28N, T30G
notes: Fab; constant domains as m1
B14: G1 variant M29 Fab (Fab, V domains shown)
VH: B1 VH with S100V
VL: B1 VL with R28N, T30G
notes: Fab; constant domains as m1
B15: G1 variant M23 Fab (Fab, V domains shown)
VH: B1 VH with S100V
VL: B1 VL with R28G
notes: Fab; constant domains as m1
B16: G1 variant M35 Fab (Fab, V domains shown)
VH: B1 VH with E54K, A57S, S100V
VL: B1 VL with R28N, T30G
notes: Fab; constant domains as m1
B17: G1 variant M38 Fab (Fab, V domains shown)
VH: B1 VH with S100V
VL: B1 VL with R28N, T30W
notes: Fab; constant domains as m1
B18: G1 variant M30 Fab (Fab, V domains shown)
VH: B1 VH with E54K, A57E, S100V
VL: B1 VL with R28N, T30G
notes: Fab; constant domains as m1
B19: G1 variant M32 Fab (Fab, V domains shown)
VH: B1 VH with E54K, A57H, S100V
VL: B1 VL with R28N, T30G
notes: Fab; constant domains as m1
B20: G1 variant M18 Fab (Fab, V domains shown)
VH: B1 VH with T99V, S100G
VL: B1 VL
notes: Fab; constant domains as m1
B21: G1 variant M21 Fab (Fab, V domains shown)
VH: B1 VH with T99S, S100A
VL: B1 VL with R28W
notes: Fab; constant domains as m1
B22: G1 variant M26 Fab (Fab, V domains shown)
VH: B1 VH with A57G, S100V
VL: B1 VL with R28N
notes: Fab; constant domains as m1
B23: G1 variant M27 Fab (Fab, V domains shown)
VH: B1 VH with S100V
VL: B1 VL with R28N, T30A
notes: Fab; constant domains as m1
B24: G1 variant M20 Fab (Fab, V domains shown)
VH: B1 VH with T99R, S100L
VL: B1 VL with R28W
notes: Fab; constant domains as m1
B25: G1 variant M43 Fab (Fab, V domains shown)
VH: B1 VH with E54K, A57N, S58C, S100V
VL: B1 VL with R28N, G50A, L56T
notes: Fab; constant domains as m1
B26: G1 variant M39 Fab (Fab, V domains shown)
VH: B1 VH with A57N, S58Y, S100V
VL: B1 VL with R28N, G50A, L56T
notes: Fab; constant domains as m1
B27: G1 variant M37 Fab (Fab, V domains shown)
VH: B1 VH with A57G, S100V
VL: B1 VL with R28N, T30S
notes: Fab; constant domains as m1

Experiments:
human α-CGRP 1-37 (WT) = biological target: T1, human α-CGRP 1-37 (WT) (human, C-terminal amide; N-terminal biotin when captured on the SA chip; 125I-labelled in the radioligand assay); assay: Biacore, 37°C, Fab over CGRP on SA chip
T1 construct: also called α-human
T1 peptide: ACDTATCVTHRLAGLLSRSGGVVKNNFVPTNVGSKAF
Method: (§1) Biacore assay for affinity determination. […] All Biacore assays were conducted in HBS-EP running buffer (10 mM HEPES pH 7.4, 150 mM NaCl, 3 mM EDTA, 0.005% v/v polysorbate P20). CGRP surfaces were prepared by diluting the N-biotinylated CGRP to a concentration of less than 0.001 mg/mL into HBS-EP buffer and injecting it across the SA sensor chip using variable contact times. […] Samples were typically injected for 1 minute at 100 μL/min and dissociation times of at least 10 minutes were allowed. […] An entire titration series (typically generated in duplicate) was fit globally to a 1:1 Langmuir binding model using the BIAevaluation program. This returned a unique pair of association and dissociation kinetic rate constants (respectively, kₒₙ and koff) for each binding interaction, whose ratio gave the equilibrium dissociation constant (KD=koff/kₒₙ). […]

rat α-CGRP (1-37) = biological target: T2, rat α-CGRP (1-37) (rat, C-terminal amide; N-terminal biotin when captured on the SA chip); assay: Biacore, 37°C, Fab over CGRP on SA chip
T2 construct: also called rat α (1-37); α-rat
T2 peptide: T1 peptide with A1S, D3N, N25D, K35E
Method: as §1

Row | Binder | Kd (human α-CGRP 1-37 (WT)) | koff (human α-CGRP 1-37 (WT)) | Kd (rat α-CGRP (1-37)) | koff (rat α-CGRP (1-37))
1 | B1 | 1.03 nM | 0.000165 s⁻¹ | 55.3 nM | 0.000996 s⁻¹
2 | B2 | 1.49 nM | 0.000239 s⁻¹ | 266 nM | 0.00479 s⁻¹
3 | B3 | 2.17 nM | 0.000347 s⁻¹ | 201 nM | 0.00361 s⁻¹
4 | B4 | 0.93 nM | 0.000148 s⁻¹ | 57.8 nM | 0.00104 s⁻¹
5 | B5 | 1.31 nM | 0.00021 s⁻¹ | 252 nM | 0.00453 s⁻¹
6 | B6 | 1.16 nM | 0.000185 s⁻¹ | 114 nM | 0.00206 s⁻¹
7 | B7 | 2.61 nM | 0.000417 s⁻¹ | 418 nM | 0.00752 s⁻¹
8 | B8 | 0.62 nM | 9.96e-05 s⁻¹ | 69.4 nM | 0.00125 s⁻¹
9 | B9 | 8 nM | 0.00128 s⁻¹ | 20000 nM | 0.36 s⁻¹
10 | B10 | 0.73 nM | 0.000116 s⁻¹ | 61.1 nM | 0.0011 s⁻¹
11 | B11 | 4.69 nM | 0.00075 s⁻¹ | 512 nM | 0.00922 s⁻¹
12 | B12 | 1.3 nM | 0.00014 s⁻¹ | 76 nM | 0.0014 s⁻¹
13 | B13 | 4.04 nM | 0.000646 s⁻¹ | 121 nM | 0.00217 s⁻¹
14 | B14 | 2.38 nM | 0.00038 s⁻¹ | 199 nM | 0.00359 s⁻¹
15 | B15 | 0.81 nM | 0.00013 s⁻¹ | 44.4 nM | 0.000799 s⁻¹
16 | B16 | 2.12 nM | 0.000339 s⁻¹ | 222 nM | 0.00399 s⁻¹
17 | B17 | 1.36 nM | 0.000218 s⁻¹ | 284 nM | 0.00511 s⁻¹
18 | B18 | 3.69 nM | 0.00059 s⁻¹ | 354 nM | 0.00638 s⁻¹
19 | B19 | 1.69 nM | 0.000271 s⁻¹ | 164 nM | 0.00296 s⁻¹
20 | B20 | 0.44 nM | 7.03e-05 s⁻¹ | 67.8 nM | 0.00122 s⁻¹
21 | B21 | 1.23 nM | 0.000142 s⁻¹ | 15.2 nM | 0.000695 s⁻¹
22 | B22 | 0.93 nM | 0.000148 s⁻¹ | 51.3 nM | 0.000924 s⁻¹
23 | B23 | 2.23 nM | 0.000357 s⁻¹ | 189 nM | 0.00341 s⁻¹
24 | B24 | 0.85 nM | 0.000136 s⁻¹ | 80 nM | 0.00144 s⁻¹
25 | B25 | 1.64 nM | 0.000263 s⁻¹ | 252 nM | 0.00453 s⁻¹
26 | B26 | 2.66 nM | 0.000425 s⁻¹ | 553 nM | 0.00995 s⁻¹
27 | B27 | 1.41 nM | 0.000226 s⁻¹ | 80.6 nM | 0.00145 s⁻¹
